Measured values: patent US12551573B2, “Compositions and methods for the targeting of PCSK9” (Scribe Therapeutics Inc., priority 2022, dated 2026)

Test system: HBEGF locus
Format: cell-based, human
Conditions: fold change in abundance of each repressor domain in the dXR library before vs after diphtheria toxin selection; dXR repression of the HBEGF gene; domains meeting p-value <0.01 and log2(fold change) >2

Row | Molecule | Log2 (fold change)
1 | DOMAIN_27579 (protein, Muntiacus muntjak) SQELLTFKDISVDFTQEEWGQLAPAHRNLYREVMLENYGNLVSVAGCQLSKPSVISQLEKGEEPWMTEKEGPGDPSSDLKS | 3.8878
2 | DOMAIN_28051 (protein, listed as Neomonachus schauinslandi) SQGLLTFKDISVDFTQEEWGQLAPAHRNLYREVMLENYGNLVSVAGYQLSKPSVISQLEKGQEPWMTEKEGPGDSSSDLKN | 2.4353
3 | DOMAIN_27902 (protein, Vulpes vulpes) SQELLTFKDVSVDFTQEEWGQLSLAHRNLYREVMLENYGNLVSVAGYQLSKPSVISQLEKGQEPWMTEKKGPGDPSPDLKN | 2.9068
4 | DOMAIN_28085 (protein, listed as Enhydra lutris) SQELLTFKDISVDFTQEEWGQLPLAHRNLYREVMLENYGNLVSVAGYQLSKPSVISQLEKGQEPWMTEKEVPEDPSSDLRT | 2.2962
5 | DOMAIN_26925 (protein, listed as Alligator sinensis) PETVVSFEDVAVRFSPDEWHLLDDGQRRLYRDVLRENYSHVRSLGFPVPDLAVIFRMERGEEPWPPGLPAGTKSDDQEEER | 3.2248
6 | DOMAIN_27032 (protein, listed as Alligator mississippiensis) PETVVSFEDVAVRFSPDEWHLLDDGQRRLYRDVLRENYSHVRSLGFPVPDLAVIFRMERGEEPWPPGLPAGEWPWGQGQAP | 3.4805
7 | DOMAIN_26886 (protein, listed as Homo sapiens) QLQETMTFKDVEVTFSQDEWGWLDSAQRNLYRDVMLENYRNMASLVGPFTKPALISWLEAREPWGLNMQAAQPKGNPVAAP | 3.3209
8 | DOMAIN_27566 (protein, Muntiacus muntjak) QLTFEDVALSFSKEEWQIMDPNQKTLYIDVMREIYETVTSLGLKLKNDTGNDQPVSLSTSEIQPSGCKVLRKARMKVAQTT | 2.7825
9 | DOMAIN_26496 (protein, listed as Geotrypetes seraphini) QMPVKFEDIAVSFSQEEWEYLDEEQKELYREVMKENYQTLISLGTGSPSITPDIISHIERGEEPYIREEPGSEEREPGRSS | 2.7991
10 | DOMAIN_26999 (protein, listed as Xenopus laevis) AQDPVTFDDISVYFSRDEWALLDAGQKQLYREVMAENYRALVSVGYVMEEPGLVSHIEHEQQGSPIRSRSSLHAGRHCGFI | 3.4317
11 | DOMAIN_26463 (protein, listed as Pelodiscus sinensis) DSMRVTFEEVAVYFTPGQGALLGPAQRALYRDVMQENYEAVTSLGFPVPKPELIARLERGEEPWVPDLQAREEREIPRGTC | 2.8812
12 | DOMAIN_26501 (protein, listed as Geotrypetes seraphini) AQVPVTFEDIAVYFSQEEWEDLEEQQRELYKDVMKENYETLSSLGPPAVTPDIISHIERGEEPYIRFESGPEEREIGKSSC | 2.6513

Same assay, conditions: high-throughput screen of dXR repression of the HBEGF gene; abundance of each domain in the library before vs after diphtheria toxin selection; listed domains met p-value <0.01 and log2(fold change) >2

Row | Molecule | Log2 (fold change)
13 | DOMAIN_26292 (protein, listed as Geotrypetes seraphini) QMQVTFEEVAISFSQEEWEYLDEEQKELYREVMKENYQTLISLATGSPTVTPKIIAHIERGEEPYIRGEPGSEERETGNSS | 2.4722
14 | DOMAIN_26103 (protein, listed as Geotrypetes seraphini) EMRVMFEEITVSFSQEEWEYLDEGQKELYQEVMKENHETLIFLETNLQFVNPDMLSKIRRDSRMSRKRKATRSYAADDEAK | 2.5308
15 | DOMAIN_26044 (protein, listed as Geotrypetes seraphini) QMRLRFEDISVSFSQEEWAYLDEEQKELYREVMRDNYQTLISLGIGSPPVTPDIISCIEQGEEPYIRDEPGSEERKTGRSS | 2.8874
16 | DOMAIN_26305 (protein, listed as Geotrypetes seraphini) QQMQVTFEDVAVSFSQEEWEYLDEGQKELYREVMKENYETVVSLGSPASTPKIISCIECGEEAYIRGEPGSEGRETGKSSC | 3.0107
17 | DOMAIN_26299 (protein, listed as Geotrypetes seraphini) QIPVIFEDIVIYFSQEEWKDLEEWQKELYKDVMKENYQTLISLGTGFPTPPPDIISHIERGEEPYIRDELESEKRETGKRG | 2.3704
18 | DOMAIN_26407 (protein, listed as Colinus virginianus) PSVPVTFRDVFVQFSRDEWALLDDEQKELHQSVMQSNYEMLMSLYCDLAKPEVSLQMERGEPCLPAEPDLQGTAVSLNPAA | 2.9778
19 | DOMAIN_25996 (protein, listed as Geotrypetes seraphini) QMPVKFEDIAVSFSQEEWEYLNEEQKELYREVMEENYQTLISLGTGSPPITPDIISHIERGEEPYIREEPGSEERGPVRSS | 3.984
20 | DOMAIN_26306 (protein, listed as Geotrypetes seraphini) QMPIKFEDIAVSFSQEEWEYLNEEQKELYREVMKENYQTLISLGTGSPPVTPDIISHIERGEEPYIREEPGSEEREPGRSS | 2.6178
21 | DOMAIN_26180 (protein, listed as Geotrypetes seraphini) QMPVKFEDIAVSFSQEEWEYLNEEQKELYREVMEENYQTLISLGIGSPSVTPDIISHIEGGEEPYIREEPGSEEREPGRSS | 3.4522
22 | DOMAIN_26012 (protein, listed as Geotrypetes seraphini) QMQVKFEDIAISFSQEEWEYLNEEQKELYREVMEENYQTLLSLATDSPTFTPKIISYIKRGEEPYIRGEPDSEERESGKSS | 2.3532
23 | DOMAIN_26131 (protein, listed as Geotrypetes seraphini) AQMPVKFEDIAVSFSQEEWEYLNEEQKELYREVMEENYQTLISLGSPPVTPDIISHIERGEEPYIREEPGSEEREPGRSSC | 2.4087
24 | DOMAIN_26134 (protein, listed as Geotrypetes seraphini) AQVPVTFEDIAIYFSQEEWEYLDEGQKALYREVMKENYETLLLLGCPGLKPVIISSIEQGEEPCVRKLQERAELYPTAGDE | 2.4433
25 | DOMAIN_26268 (protein, listed as Geotrypetes seraphini) VARMQTRVTFDDIAVSFSQEEWEYLDEGQKELYREVMEENLELLTSLGSLVAQPEQMEELYMMDHHDMGLRGTLLSLCTED | 2.1404
26 | DOMAIN_26177 (protein, listed as Geotrypetes seraphini) ASAQVTFEDIAVSFCHEEWRYLDEGQKELYKEVMKENYETLISLGFLCEKPSLISKIEQEEDPCVRDQQNSRERRRRLKNF | 3.4467

Same assay, conditions: high-throughput screen of dXR repression of the HBEGF gene; change in abundance of each domain in the library before and after diphtheria toxin selection

Row | Molecule | Log2 (fold change)
27 | DOMAIN_980 (protein, Pan troglodytes) MPLKAQYQEMVTFEDVAVHFTKTEWTGLSPAQRALYRSVMLENFGNLTALGYPVPKPALISLLEGGDMAWGLEAQDDPPAE | 2.9297
